Columns and labels:
[1] = target: Arkadia (RING finger protein 111, RNF111), wild type, expressed in S. cerevisiae (human) (UniProt Q6ZNA4)
[2] = target: SUMO1-GFP-COMP-HA; assay: native gel or EMSA; native PAGE of the GFP-COMP substrates expressed in S. cerevisiae
[3] = target: SUMO-binding domain of Arkadia (residues 285–416) with mutations in the SOB motif (SOB*) (murine) (UniProt Q99ML9); assay: ITC
[4] = target: FLAG-SUMO2-GFP-COMP-HA; assay: native gel or EMSA; native PAGE of the GFP-COMP substrates expressed in S. cerevisiae

Chain of SUMO-binding domain of Arkadia (residues 285–416) with mutations in the SOB motif (SOB*) (murine) (Q99ML9 285-416, change not shown): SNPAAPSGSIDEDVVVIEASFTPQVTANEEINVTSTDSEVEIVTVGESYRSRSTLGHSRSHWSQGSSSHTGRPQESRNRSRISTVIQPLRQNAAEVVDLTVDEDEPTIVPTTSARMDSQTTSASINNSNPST
Chain of Arkadia (RING finger protein 111, RNF111), wild type, expressed in S. cerevisiae (human) (Q6ZNA4 whole entry): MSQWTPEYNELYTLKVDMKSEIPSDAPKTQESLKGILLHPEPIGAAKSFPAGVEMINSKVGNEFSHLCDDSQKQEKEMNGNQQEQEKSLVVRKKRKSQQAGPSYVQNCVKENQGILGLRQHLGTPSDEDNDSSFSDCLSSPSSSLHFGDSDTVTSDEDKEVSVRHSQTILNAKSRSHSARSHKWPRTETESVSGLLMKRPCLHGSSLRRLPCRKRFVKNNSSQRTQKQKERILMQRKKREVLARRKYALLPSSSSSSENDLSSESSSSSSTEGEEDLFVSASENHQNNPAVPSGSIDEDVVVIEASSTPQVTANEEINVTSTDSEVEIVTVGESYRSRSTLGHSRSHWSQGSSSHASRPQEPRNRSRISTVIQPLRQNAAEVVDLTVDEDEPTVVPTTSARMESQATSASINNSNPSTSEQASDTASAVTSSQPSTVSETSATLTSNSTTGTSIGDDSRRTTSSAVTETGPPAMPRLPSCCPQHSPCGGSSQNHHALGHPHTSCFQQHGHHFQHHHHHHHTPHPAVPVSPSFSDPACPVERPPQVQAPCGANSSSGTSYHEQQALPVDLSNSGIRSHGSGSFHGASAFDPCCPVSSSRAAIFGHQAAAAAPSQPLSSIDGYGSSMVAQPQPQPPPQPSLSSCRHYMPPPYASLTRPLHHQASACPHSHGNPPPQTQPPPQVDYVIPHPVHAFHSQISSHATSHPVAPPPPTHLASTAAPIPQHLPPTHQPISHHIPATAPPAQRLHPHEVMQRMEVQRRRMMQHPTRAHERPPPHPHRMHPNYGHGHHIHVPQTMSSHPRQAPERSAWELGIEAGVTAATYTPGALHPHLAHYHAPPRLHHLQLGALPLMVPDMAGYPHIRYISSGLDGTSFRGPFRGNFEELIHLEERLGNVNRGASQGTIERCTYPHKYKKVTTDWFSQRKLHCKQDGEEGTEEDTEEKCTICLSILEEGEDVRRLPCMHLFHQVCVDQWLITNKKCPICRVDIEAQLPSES

| Substance | steady-state level of the reporter in S. cerevisiae co-expressing Arkadia, against the vector control (quantitative anti-HA Western blot) [1] [%] | Kd [3] [µM] | further results |
| --- | --- | --- | --- |
| FLAG-SUMO1-3xSUMO2-GFP-HA | 25 |  |  |
| SUMO1-GFP-COMP-HA |  |  | stoichiometry N [2]: 5 |
| FLAG-SUMO2-GFP-COMP-HA |  |  | stoichiometry N [4]: 5 |

Further lines, with some results ahead:

| steady-state level of the reporter in S. cerevisiae co-expressing Arkadia, against the vector control (quantitative anti-HA Western blot) [1] [%] | Kd [3] [µM] | Substance | further results |
| --- | --- | --- | --- |
|  | 12.4 | linear SUMO1-capped SUMO2 trimer (SUMO1-ΔN15 followed by two SUMO2-ΔN11) (from UniProt P63165 16-101; P61956 12-95; P61956 12-95) |  |
|  | 11.1 | linear SUMO2 trimer (tri-SUMO2-ΔN11) (from UniProt P61956 12-95; P61956 12-95; P61956 12-95) |  |
| 60 |  | FLAG-4xSUMO2-GFP-HA (from UniProt P61956 12-95; P61956 12-95; P61956 12-95) |  |
